In this test the target is T1, CD16 on human natural killer (NK) cells (human, UniProt P08637 17-254).
T1 construct: whole, on cells
The experiment in a line: flow cytometry on human NK cells, BiKE-containing supernatant, PE anti-V5 detection. (Flow cytometry measures light scatter and fluorescence of single cells or particles in a stream.)

T1 sequence (P08637 17-254): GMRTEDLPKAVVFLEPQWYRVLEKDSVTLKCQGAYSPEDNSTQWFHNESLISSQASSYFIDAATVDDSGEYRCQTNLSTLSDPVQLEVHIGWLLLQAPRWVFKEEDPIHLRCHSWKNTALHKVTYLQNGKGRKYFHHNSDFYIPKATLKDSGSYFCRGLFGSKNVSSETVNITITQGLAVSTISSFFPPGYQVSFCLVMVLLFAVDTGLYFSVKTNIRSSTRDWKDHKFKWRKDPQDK

B1: Bi-specific Natural Killer and Neutrophil engager (BiKE), CD138-CD16, secreted from MYXV-BiKE-infected cells, with C-terminal V5 tag (bispecific antibody)
chain: DIQMTQSTSSLSASLGDRVTISCSASQGINNYLNWYQQKPDGTVELLIYYTSTLQSGVPSRFSGSGSGTDYSLTISNLEPEDIGTYYCQQYSKLPRTFGGGTKLEIKGGGGSGGGGSGGGGSSQVQLQQSGSELMMPGASVKISCKATGYTFSNYWIEWVKQRPGHGLEWIGEILPGTGRTIYNEKFKGKATFTADISSNTVQMQLSSLTSEDSAVYYCARRDYYGNFYYAMDYWGQGTSVTVSSGGGGSGGGGSQVTLKESGPGILQPSQTLSLTCSFSGFSLRTSGMGVGWIRQPSGKGLEWLAHIWWDDDKRYNPALKSRLTISKDTSSNQVFLKIASVDTADTATYYCAQINPAWFAYWGQGTLVTVSAGGGGSGGGGSGGGGSDTVLTQSPASLAVSLGQRATISCKASQSVDFDGDSFMNWYQQKPGQPPKLLIYTTSNLESGIPARFSASGSGTDFTLNIHPVEEEDTATYYCQQSNEDPYTFGGGTKLEIKGKPIPNPLLGLDST
notes: Tested as secreted protein in supernatants of MYXV-BiKE-infected RK13 or Vero cells and detected through its V5 tag; Concentration was not determined; also called huBiKE; CD138-CD16 BiKE
For B1, the binding result is reported as “binds”.
